Assays:
Test in all cases: native MS; native nanoESI ion mobility MS (Synapt G2-S), 20 μM peptide in 200 mM ammonium acetate pH 6.8, positive ion mode, 25 °C source temperature; self-association of SEC-purified monomer
[1] = biological target: Aβ(1–28)
[2] = biological target: amyloid-β peptide Aβ(1–40)
[3] = biological target: Aβ(1–38)
[4] = biological target: Aβ(1–16)
[5] = biological target: scrambled Aβ(1–40)
[6] = biological target: Aβ(1–40)CC (A21C and A30C double mutant with an intramolecular disulfide bond)

Question: Aβ(1–28) (peptide) was tested. Which stoichiometry N [1] did it give?
Answer: 6

Question: With amyloid-β peptide Aβ(1–40) as the substance, how does the stoichiometry N [2] read?
Answer: > 8

Question: Which stoichiometry N [3] does the source give for Aβ(1–38) (peptide) here?
Answer: > 6

Question: Aβ(1–16) (peptide) was tested. Which stoichiometry N [4] did it give?
Answer: 2

Question: With scrambled Aβ(1–40) (peptide) as the substance, how does the stoichiometry N [5] read?
Answer: 2

Question: How did the stoichiometry N [6] turn out when “Aβ(1–40)CC (A21C and A30C double mutant with an intramolecular disulfide bond) (peptide)” was run?
Answer: > 10

Source: paper PMC10450692
